B1: human TFIIIC subunit TFIIIC63 (natural protein)
chain: MAAEAADLGLGAAVPVELRRERRMVCVEYPGVVRDVAKMLPTLGGEEGVSRIYADPTKRLELYFRPKDPYCHPVCANRFSTSSLLLRIRKRTRRQKGVLGTEAHSEVTFDMEILGIISTIYKFQGMSDFQYLAVHTEAGGKHTSMYDKVLMLRPEKEAFFHQELPLYIPPPIFSRLDAPVDYFYRPETQHREGYNNPPISGENLIGLSRARRPHNAIFVNFEDEEVPKQPLEAAAQTWRRVCTNPVDRKVEEELRKLFDIRPIWSRNAVKANISVHPDKLKVLLPFIAYYMITGPWRSLWIRFGYDPRKNPDAKIYQVLDFRIRCGMKHGYAPSDLPVKAKRSTYNYSLPITVKKTSSQLVTMHDLKQGLGPSGTSGARKPASSKYKLKDSVYIFREGALPPYRQMFYQLCDLNVEELQKIIHRNDGAENSCTERDGWCLPKTSDELRDTMSLMIRQTIRSKRPALFSSSAKADGGKEQLTYESGEDEEDEEEEEEEEEDFKPSDGSENEMETEILDYV
notes: TFIIIC63, subunit of human TFIIIC; coding gene from DNASU, codon-optimized for insect cells; No truncation is described; also called τ95 in yeast (homolog); GTC3C5 (so in the source); source: Sf21 insect cells, baculovirus, coexpressed with the other five hTFIIIC subunits; purified (anti-FLAG M2 agarose, Capto HiRes Q)

Experiments:
[1] = target: T1, human TFIIIC subunit TFIIIC220 (human, UniProt Q12789 1-2109); experiment: mass photometry; purified hTFIIIC alone; 1 μl of sample at 400 nM added to 19 μl of 20 mM Hepes pH 8, 150 mM KCl, 2 mM MgCl2, 5 mM DTT; Refeyn TwoMP; nanomolar concentrations; conditions: both partners purified
T1 construct: TFIIIC220, largest subunit of human TFIIIC; 2109 amino acids as printed; No truncation is described; the expected mass of 624 kDa is that of the intact complex; also called τ138 in yeast (homolog); GTF3C1; source: Sf21 insect cells, baculovirus, coexpressed with the other five hTFIIIC subunits; purified (anti-FLAG M2 agarose, Capto HiRes Q); not shown: 3x FLAG, C-terminal, kept

[2] = target: B1; experiment: cryo-EM structure; purified hTFIIIC (3.17 μM) alone or with human TRR-TCT3-2 tRNA gene DNA at a 1:1 molar ratio; EM buffer 20 mM Hepes pH 8, 225 mM KCl, 2 mM MgCl2, 5 mM DTT; 0.1% octyl-β-glucoside; separate reconstructions of τA and of dimeric τB; conditions: both partners purified
[3] = target: the molecule itself; experiment: as above

T1 sequence (Q12789 whole entry, the tested form may be a part): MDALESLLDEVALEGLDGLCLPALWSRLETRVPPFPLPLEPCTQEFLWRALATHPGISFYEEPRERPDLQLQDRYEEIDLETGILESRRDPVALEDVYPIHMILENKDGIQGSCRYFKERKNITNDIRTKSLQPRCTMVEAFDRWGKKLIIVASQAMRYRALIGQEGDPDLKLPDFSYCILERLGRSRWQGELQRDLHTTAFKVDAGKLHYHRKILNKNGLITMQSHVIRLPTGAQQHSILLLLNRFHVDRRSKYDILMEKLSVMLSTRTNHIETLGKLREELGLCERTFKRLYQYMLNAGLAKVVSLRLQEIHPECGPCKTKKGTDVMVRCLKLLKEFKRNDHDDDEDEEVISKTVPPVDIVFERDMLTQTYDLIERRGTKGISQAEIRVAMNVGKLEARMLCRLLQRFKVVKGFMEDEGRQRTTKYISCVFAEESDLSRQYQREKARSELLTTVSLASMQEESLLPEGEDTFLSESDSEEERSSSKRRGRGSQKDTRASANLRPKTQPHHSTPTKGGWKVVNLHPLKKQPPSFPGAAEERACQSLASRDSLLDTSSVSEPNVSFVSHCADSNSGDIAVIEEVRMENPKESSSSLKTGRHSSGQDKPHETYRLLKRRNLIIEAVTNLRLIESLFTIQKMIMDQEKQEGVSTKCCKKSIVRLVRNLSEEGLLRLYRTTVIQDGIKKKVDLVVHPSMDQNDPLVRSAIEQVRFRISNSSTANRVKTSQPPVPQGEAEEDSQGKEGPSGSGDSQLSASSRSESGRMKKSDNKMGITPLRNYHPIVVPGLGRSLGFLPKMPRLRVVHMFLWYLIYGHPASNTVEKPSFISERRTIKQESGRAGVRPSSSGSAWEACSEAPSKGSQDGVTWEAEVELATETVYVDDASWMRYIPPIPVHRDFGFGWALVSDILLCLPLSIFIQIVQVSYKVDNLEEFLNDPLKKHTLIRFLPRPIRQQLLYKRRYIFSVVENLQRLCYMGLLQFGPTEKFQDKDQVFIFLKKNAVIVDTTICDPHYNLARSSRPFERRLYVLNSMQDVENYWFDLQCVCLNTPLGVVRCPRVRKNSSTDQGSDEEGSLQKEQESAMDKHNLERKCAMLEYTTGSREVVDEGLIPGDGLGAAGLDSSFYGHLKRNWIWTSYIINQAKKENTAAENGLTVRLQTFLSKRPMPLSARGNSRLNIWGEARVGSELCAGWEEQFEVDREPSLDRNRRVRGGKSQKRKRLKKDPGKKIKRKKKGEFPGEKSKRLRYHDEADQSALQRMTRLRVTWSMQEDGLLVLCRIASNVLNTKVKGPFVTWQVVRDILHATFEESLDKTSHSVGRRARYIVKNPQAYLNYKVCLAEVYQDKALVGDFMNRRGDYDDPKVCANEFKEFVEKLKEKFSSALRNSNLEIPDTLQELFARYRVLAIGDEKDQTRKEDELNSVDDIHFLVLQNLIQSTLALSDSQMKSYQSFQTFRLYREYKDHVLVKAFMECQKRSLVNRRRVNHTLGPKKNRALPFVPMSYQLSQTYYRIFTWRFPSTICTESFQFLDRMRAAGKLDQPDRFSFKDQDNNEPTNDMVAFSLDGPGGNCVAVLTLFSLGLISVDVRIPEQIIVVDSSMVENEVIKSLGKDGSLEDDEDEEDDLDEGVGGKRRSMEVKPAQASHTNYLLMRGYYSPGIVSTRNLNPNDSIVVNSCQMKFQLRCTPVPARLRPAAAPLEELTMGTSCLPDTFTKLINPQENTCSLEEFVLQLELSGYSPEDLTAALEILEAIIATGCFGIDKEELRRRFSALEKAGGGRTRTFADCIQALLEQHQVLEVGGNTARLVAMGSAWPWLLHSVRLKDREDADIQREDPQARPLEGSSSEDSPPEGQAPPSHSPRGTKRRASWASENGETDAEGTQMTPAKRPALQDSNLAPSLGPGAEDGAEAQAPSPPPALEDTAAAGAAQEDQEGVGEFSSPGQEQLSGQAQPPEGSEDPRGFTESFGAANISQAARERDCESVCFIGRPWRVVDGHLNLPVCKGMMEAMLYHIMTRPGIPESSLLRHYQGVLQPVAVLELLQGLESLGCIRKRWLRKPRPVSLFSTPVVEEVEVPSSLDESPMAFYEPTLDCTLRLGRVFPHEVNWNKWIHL

Binder	binding result [1]	binding result [2]	stoichiometry N [3]
human TFIIIC subunit TFIIIC102 (natural protein, TFIIIC102, subunit of human TFIIIC; No truncation is described; also called τ131 in yeast (homolog); GTF3C3; source: Sf21 insect cells, baculovirus, coexpressed with the other five hTFIIIC subunits; purified (anti-FLAG M2 agarose, Capto HiRes Q)) MSGFSPELIDYLEGKISFEEFERRREERKTREKKSLQEKGKLSAEENPDDSEVPSSSGINSTKSQDKDVNEGETSDGVRKSVHKVFASMLGENEDDEEEEEEEEEEEEEEETPEQPTAGDVFVLEMVLNRETKKMMKEKRPRSKLPRALRGLMGEANIRFARGEREEAILMCMEIIRQAPLAYEPFSTLAMIYEDQGDMEKSLQFELIAAHLNPSDTEEWVRLAEMSLEQDNIKQAIFCYTKALKYEPTNVRYLWERSSLYEQMGDHKMAMDGYRRILNLLSPSDGERFMQLARDMAKSYYEANDVTSAINIIDEAFSKHQGLVSMEDVNIAAELYISNKQYDKALEIITDFSGIVLEKKTSEEGTSEENKAPENVTCTIPDGVPIDITVKLMVCLVHLNILEPLNPLLTTLVEQNPEDMGDLYLDVAEAFLDVGEYNSALPLLSALVCSERYNLAVVWLRHAECLKALGYMERAAESYGKVVDLAPLHLDARISLSTLQQQLGQPEKALEALEPMYDPDTLAQDANAAQQELKLLLHRSTLLFSQGKMYGYVDTLLTMLAMLLKVAMNRAQVCLISSSKSGERHLYLIKVSRDKISDSNDQESANCDAKAIFAVLTSVLTKDDWWNLLLKAIYSLCDLSRFQEAELLVDSSLEYYSFYDDRQKRKELEYFGLSAAILDKNFRKAYNYIRIMVMENVNKPQLWNIFNQVTMHSQDVRHHRFCLRLMLKNPENHALCVLNGHNAFVSGSFKHALGQYVQAFRTHPDEPLYSFCIGLTFIHMASQKYVLRRHALIVQGFSFLNRYLSLRGPCQESFYNLGRGLHQLGLIHLAIHYYQKALELPPLVVEGIELDQLDLRRDIAYNLSLIYQSSGNTGMAQTLLYTYCSI	binds		
B1	binds		
human TFIIIC subunit TFIIIC35 (natural protein, TFIIIC35, subunit of human TFIIIC; the ordered GTF3C6 gene encoded a serine in position 1, which was replaced by methionine; No truncation is described; also called τ55 in yeast (homolog); GTF3C6; source: Sf21 insect cells, baculovirus, coexpressed with the other five hTFIIIC subunits; purified (anti-FLAG M2 agarose, Capto HiRes Q)) MAAAADERSPEDGEDEEEEEQLVLVELSGIIDSDFLSKCENKCKVLGIDTERPILQVDSCVFAGEYEDTLGTCVIFEENVEHADTEGNNKTVLKYKCHTMKKLSMTRTLLTEKKEGEENIGGVEWLQIKDNDFSYRPNMICNFLHENEDEEVVASAPDKSLELEEEEIQMNDSSNLSCEQEKPMHLEIEDSGPLIDIPSETEGSVFMETQMLP	binds	binds	
human TFIIIC subunit TFIIIC110 (natural protein, TFIIIC110, subunit of human TFIIIC; No truncation is described; also called τ91 in yeast (homolog); GTF3C2; source: Sf21 insect cells, baculovirus, coexpressed with the other five hTFIIIC subunits; purified (anti-FLAG M2 agarose, Capto HiRes Q)) MDTCGVGYVALGEAGPVGNMTVVDSPGQEVLNQLDVKTSSEMTSAEASVEMSLPTPLPGFEDSPDQRRLPPEQESLSRLEQPDLSSEMSKVSKPRASKPGRKRGGRTRKGPKRPQQPNPPSAPLVPGLLDQSNPLSTPMPKKRGRKSKAELLLLKLSKDLDRPESQSPKRPPEDFETPSGERPRRRAAQVALLYLQELAEELSTALPAPVSCPEGPKVSSPTKPKKIRQPAACPGGEEVDGAPRDEDFFLQVEAEDVEESEGPSESSSEPEPVVPRSTPRGSTSGKQKPHCRGMAPNGLPNHIMAPVWKCLHLTKDFREQKHSYWEFAEWIPLAWKWHLLSELEAAPYLPQEEKSPLFSVQREGLPEDGTLYRINRFSSITAHPERWDVSFFTGGPLWALDWCPVPEGAGASQYVALFSSPDMNETHPLSQLHSGPGLLQLWGLGTLQQESCPGNRAHFVYGIACDNGCIWDLKFCPSGAWELPGTPRKAPLLPRLGLLALACSDGKVLLFSLPHPEALLAQQPPDAVKPAIYKVQCVATLQVGSMQATDPSECGQCLSLAWMPTRPHQHLAAGYYNGMVVFWNLPTNSPLQRIRLSDGSLKLYPFQCFLAHDQAVRTLQWCKANSHFLVSAGSDRKIKFWDLRRPYEPINSIKRFLSTELAWLLPYNGVTVAQDNCYASYGLCGIHYIDAGYLGFKAYFTAPRKGTVWSLSGSDWLGTIAAGDISGELIAAILPDMALNPINVKRPVERRFPIYKADLIPYQDSPEGPDHSSASSGVPNPPKARTYTETVNHHYLLFQDTDLGSFHDLLRREPMLRMQEGEGHSQLCLDRLQLEAIHKVRFSPNLDSYGWLVSGGQSGLVRIHFVRGLASPLGHRMQLESRAHFNAMFQPSSPTRRPGFSPTSHRLLPTP	binds		2
human TFIIIC subunit TFIIIC90 (natural protein, TFIIIC90, subunit of human TFIIIC; coding gene from DNASU, codon-optimized for insect cells; No truncation is described; also called τ60 in yeast (homolog); source: Sf21 insect cells, baculovirus, coexpressed with the other five hTFIIIC subunits; purified (anti-FLAG M2 agarose, Capto HiRes Q)) MNTADQARVGPADDGPAPSGEEEGEGGGEAGGKEPAADAAPGPSAAFRLMVTRREPAVKLQYAVSGLEPLAWSEDHRVSVSTARSIAVLELICDVHNPGQDLVIHRTSVPAPLNSCLLKVGSKTEVAECKEKFAASKDPTVSQTFMLDRVFNPEGKALPPMRGFKYTSWSPMGCDANGRCLLAALTMDNRLTIQANLNRLQWVQLVDLTEIYGERLYETSYRLSKNEAPEGNLGDFAEFQRRHSMQTPVRMEWSGICTTQQVKHNNECRDVGSVLLAVLFENGNIAVWQFQLPFVGKESISSCNTIESGITSPSVLFWWEYEHNNRKMSGLIVGSAFGPIKILPVNLKAVKGYFTLRQPVILWKEMDQLPVHSIKCVPLYHPYQKCSCSLVVAARGSYVFWCLLLISKAGLNVHNSHVTGLHSLPIVSMTADKQNGTVYTCSSDGKVRQLIPIFTDVALKFEHQLIKLSDVFGSVRTHGIAVSPCGAYLAIITTEGMINGLHPVNKNYQVQFVTLKTFEEAAAQLLESSVQNLFKQVDLIDLVRWKILKDKHIPQFLQEALEKKIESSGVTYFWRFKLFLLRILYQSMQKTPSEALWKPTHEDSKILLVDSPGMGNADDEQQEEGTSSKQVVKQGLQERSKEGDVEEPTDDSLPTTGDAGGREPMEEKLLEIQGKIEAVEMHLTREHMKRVLGEVYLHTWITENTSIPTRGLCNFLMSDEEYDDRTARVLIGHISKKMNKQTFPEHCSLCKEILPFTDRKQAVCSNGHIWLRCFLTYQSCQSLIYRRCLLHDSIARHPAPEDPDWIKRLLQSPCPFCDSPVF	binds		

From article PMC11811891, “Structural insights into human TFIIIC promoter recognition” (Science Advances, 2023)
